Source: FireProtDB (doi:10.1016/s0167-4838(99)00071-0)
Several values for one entry are separate records, joined by “and”; a condition that tells them apart may be missing. Identical values can stand only once.

Conditions: Saccharomyces cerevisiae (strain ATCC 204508 / S288c), Thermal, DSC, reversible: yes
[1] = pH 4.7, 51.4 °C, sodium acetate 50 mM, structure 1YCC
[2] = pH 4.7, sodium acetate 50 mM, structure 1YCC
[3] = pH 6, 57.1 °C, sodium phosphate 100 mM, structure 1YCC
[4] = pH 6, sodium phosphate 100 mM, structure 1YCC
[5] = pH 6, sodium phosphate 10 mM, structure 1YCC

Cytochrome c isoform 1 T75E|C108T, P00044 T75E C108T, sequence (P00044 whole entry T75E/C108T, canonical isoform): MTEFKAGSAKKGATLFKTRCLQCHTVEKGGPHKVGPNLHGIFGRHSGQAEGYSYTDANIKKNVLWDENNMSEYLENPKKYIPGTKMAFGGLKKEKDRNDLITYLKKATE
Cytochrome c isoform 1 wild type, P00044, sequence (P00044 whole entry, canonical isoform): as the sequence (P00044 whole entry T75E/C108T, canonical isoform) above, with E75T, T108C counted along it
Cytochrome c isoform 1 T102A|C108T, P00044 T102A C108T, sequence (P00044 whole entry T102A/C108T, canonical isoform): as the sequence (P00044 whole entry T75E/C108T, canonical isoform) above, with E75T, T102A counted along it
Cytochrome c isoform 1 T75E|T102A|C108T, P00044 T75E T102A C108T, sequence (P00044 whole entry T75E/T102A/C108T, canonical isoform): as the sequence (P00044 whole entry T75E/C108T, canonical isoform) above, with T102A counted along it
Cytochrome c isoform 1 C108T, P00044, sequence (P00044 whole entry C108T, canonical isoform): as the sequence (P00044 whole entry T75E/C108T, canonical isoform) above, with E75T counted along it

Substance	unfolding enthalpy (calorimetric) [1]	heat capacity change of unfolding [2]	unfolding enthalpy (calorimetric) [2]	unfolding enthalpy (van 't Hoff) [2]	unfolding enthalpy (calorimetric) [3]	heat capacity change of unfolding [4]	unfolding enthalpy (calorimetric) [4]	unfolding enthalpy (van 't Hoff) [4]	heat capacity change of unfolding [5]	unfolding enthalpy (calorimetric) [5]	unfolding enthalpy (van 't Hoff) [5]	other results
Cytochrome c isoform 1 wild type, P00044												unfolding enthalpy (calorimetric) (pH 4.7, 51.4 °C, sodium acetate 50 mM): 42 kcal/mol and 49 kcal/mol; heat capacity change of unfolding (pH 4.7, sodium acetate 50 mM): 1.4 kcal/mol/K; unfolding enthalpy (calorimetric) (pH 4.7, sodium acetate 50 mM): 40 kcal/mol; unfolding enthalpy (van 't Hoff) (pH 4.7, sodium acetate 50 mM): 52 kcal/mol; unfolding enthalpy (calorimetric) (pH 6, 57.1 °C, sodium phosphate 100 mM): 78 kcal/mol and 62 kcal/mol; Tm (pH 6, sodium phosphate 10 mM): 81.4 °C; heat capacity change of unfolding (pH 6, sodium phosphate 100 mM): 1.4 kcal/mol/K; unfolding enthalpy (calorimetric) (pH 6, sodium phosphate 100 mM): 78 kcal/mol and 98 kcal/mol; unfolding enthalpy (van 't Hoff) (pH 6, sodium phosphate 100 mM): 101 kcal/mol and 127 kcal/mol
Cytochrome c isoform 1 T75E|T102A|C108T, P00044 T75E T102A C108T	75 kcal/mol and 77 kcal/mol	1.7 kcal/mol/K	85 kcal/mol and 130 kcal/mol	102 kcal/mol and 169 kcal/mol	83 kcal/mol and 92 kcal/mol	1.7 kcal/mol/K	92 kcal/mol and 143 kcal/mol	120 kcal/mol and 157 kcal/mol				
Cytochrome c isoform 1 T102A|C108T, P00044 T102A C108T	78 kcal/mol and 67 kcal/mol	1.8 kcal/mol/K	84 kcal/mol and 121 kcal/mol	118 kcal/mol and 133 kcal/mol	84 kcal/mol	1.8 kcal/mol/K	91 kcal/mol and 144 kcal/mol	109 kcal/mol and 144 kcal/mol				
Cytochrome c isoform 1 T75E|C108T, P00044 T75E C108T	80 kcal/mol	1.5 kcal/mol/K	89 kcal/mol and 125 kcal/mol	97.9 kcal/mol and 138 kcal/mol	90 kcal/mol and 91 kcal/mol	1.5 kcal/mol/K	135 kcal/mol	149 kcal/mol	1.5 kcal/mol/K	98 kcal/mol	108 kcal/mol	Tm [5]: 62.6 °C; Tm [4]: 86.3 °C
Cytochrome c isoform 1 C108T, P00044	65 kcal/mol and 68 kcal/mol	1.7 kcal/mol/K	69 kcal/mol and 116 kcal/mol	82.8 kcal/mol and 151 kcal/mol	81 kcal/mol and 75 kcal/mol				1.7 kcal/mol/K	86 kcal/mol and 122 kcal/mol	95 kcal/mol and 146 kcal/mol	
